Assay results taken from patent publication US20080220004A1 (published 2008).

How the values were obtained:
[1] = biological target: chimeric receptor Flt(1-7)-EpoR on Baf/3 cells (human) (UniProt P17948); test: cell-based or functional assay
human VEGF165 = human VEGF165 (human, UniProt P15692-4 27-191); test: ELISA of rabbit ocular tissue and plasma samples on human VEGF165-coated plates (pharmacokinetic detection)
Chain of human VEGF165 (P15692 other isoform, or with tags, fused parts or gaps): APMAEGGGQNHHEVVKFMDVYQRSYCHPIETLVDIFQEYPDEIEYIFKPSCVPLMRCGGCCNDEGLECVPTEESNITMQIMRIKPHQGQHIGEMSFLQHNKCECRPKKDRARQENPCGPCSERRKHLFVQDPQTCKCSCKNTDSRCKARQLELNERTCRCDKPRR
Protocol: Ocular and systemic levels of two VEGF inhibitors were determined after a single intravitreal administration to male Pigmented New Zealand Cross Bred rabbits. At various time points following the injection, the rabbits were sacrificed and vitreous, retina, and choroid tissues were collected, as well as blood samples for plasma and serum.
Sample Processing. Generally, vitreal samples were thawed at room temperature and transferred to individual 5 mL polypropylene tubes. An equivalent weight per volume of RIPA buffer (20 MM Tris HCl, pH 7.5, 5 mM benzamidine, 150 mM sodium chloride, 50 mM sodium fluoride, 1 mM sodium orthovanadate, and 1 mM EDTA) was added to each sample, and homogenized (Cyclone I.Q. Microprocessor, Sentry) for 2, 45 second cycles at 5,500 rpm. The samples were then incubated for 20 minutes on ice and then centrifuged for 30 minute at 5,500 rpm at 4° C. The supernatant was removed and stored at −80° C. for analysis. Retinal and choroid samples were similarly processed the samples were homogenized for 30-60 seconds at the highest speed setting (Ultra Tunax T8 Homogenizer with S8N-5G Disposing Element, IKA Laboratoies). The samples were transferred to individual 1.5 mL eppendorf tubes and incubated for 20 minutes on ice. They were then centrifuged for 30 minutes at 5,500 rpm, 4° C. […]

Chain of chimeric receptor Flt(1-7)-EpoR on Baf/3 cells (human) (P17948 other isoform, or with tags, fused parts or gaps mutant limits assumed): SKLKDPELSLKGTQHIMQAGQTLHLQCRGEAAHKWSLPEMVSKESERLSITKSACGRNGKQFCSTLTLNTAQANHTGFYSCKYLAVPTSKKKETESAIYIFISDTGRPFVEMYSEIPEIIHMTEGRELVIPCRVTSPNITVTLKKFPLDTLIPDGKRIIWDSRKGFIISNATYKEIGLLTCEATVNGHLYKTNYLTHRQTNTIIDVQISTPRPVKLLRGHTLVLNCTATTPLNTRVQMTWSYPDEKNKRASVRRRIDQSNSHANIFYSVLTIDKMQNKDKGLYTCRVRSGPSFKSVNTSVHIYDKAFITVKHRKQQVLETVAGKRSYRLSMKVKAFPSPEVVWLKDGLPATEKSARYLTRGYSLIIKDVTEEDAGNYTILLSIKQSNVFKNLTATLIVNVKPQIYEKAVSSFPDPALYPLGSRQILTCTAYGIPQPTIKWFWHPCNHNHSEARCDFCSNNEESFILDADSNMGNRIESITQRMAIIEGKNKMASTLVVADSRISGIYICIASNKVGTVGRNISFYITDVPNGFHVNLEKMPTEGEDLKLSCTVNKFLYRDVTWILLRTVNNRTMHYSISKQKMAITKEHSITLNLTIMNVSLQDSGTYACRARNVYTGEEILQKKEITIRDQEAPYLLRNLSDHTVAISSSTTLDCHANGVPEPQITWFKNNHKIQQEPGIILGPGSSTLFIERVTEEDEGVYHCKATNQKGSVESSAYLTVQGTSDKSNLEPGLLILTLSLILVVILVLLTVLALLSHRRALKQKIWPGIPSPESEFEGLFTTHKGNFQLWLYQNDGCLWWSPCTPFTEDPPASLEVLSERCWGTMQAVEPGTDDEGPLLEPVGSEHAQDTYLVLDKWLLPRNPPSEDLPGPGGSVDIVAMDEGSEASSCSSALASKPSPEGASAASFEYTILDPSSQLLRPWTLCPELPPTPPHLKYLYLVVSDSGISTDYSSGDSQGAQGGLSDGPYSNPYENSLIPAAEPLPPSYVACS

| proliferation of Baf/Flt(1-7)-EpoR cells (WST-8 bioreduction), EC50 [1] [nM] | binding result (human VEGF165) | Molecule |
| --- | --- | --- |
| 0.018 | – | VEGF 121 (R&D Biosystems) (from UniProt P15692 27-147) (ligand) |
| – | binds | mini-VEGF trap (other, also called truncated VEGF trap protein) SDTGRPFVEMYSEIPEIIHMTEGRELVIPCRVTSPNITVTLKKFPLDTLIPDGKRIIWDSRKGFIISNATYKEIGLLTCEATVNGHLYKTNYLTHRQTNTIIDVVLSPSHGIELSVGEKLVLNCTARTELNVGIDFNWEYPSSKHQHKKLVNRDLKTQSGSEMKKFLSTLTIDGVTRSDQGLYTCAASSGLMTKKNSTFVRVHEKDKTHTCPPC |
